Earlier results on 26 substances are cited in PMC12990809.

Targets include YBX2 (Homo sapiens) (UniProt Q9Y2T7); U2AF2 (Homo sapiens) (UniProt P26368); SNRPA (Homo sapiens) (UniProt P09012); SRSF9 (Homo sapiens) (UniProt Q13242); SNRNP70 (Homo sapiens) (UniProt P08621); Khdrbs1 (Mus musculus) (UniProt Q60749); YBX1 (Homo sapiens) (UniProt P67809); TARDBP (Homo sapiens) (UniProt Q13148).
Common to all, as to test: pulldown
Holding throughout (conditions): 20 nM protein, 1.5 uM RNA pool; 20 mM HEPES pH 7.8, 70 mM KCl, 10 mM NaCl, 10% glycerol, 2 mM DTT, 0.1 ug/uL BSA; 30 min, 4 C (protocol of this paper; not …); cited from earlier work

Another series has as its target T1, SAMD4A (Homo sapiens) (UniProt Q9UPU9).
T1 sequence: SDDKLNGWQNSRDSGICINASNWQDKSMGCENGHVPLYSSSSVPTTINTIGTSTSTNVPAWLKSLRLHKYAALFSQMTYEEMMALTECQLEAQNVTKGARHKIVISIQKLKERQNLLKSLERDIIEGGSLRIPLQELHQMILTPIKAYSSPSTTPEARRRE

In another series the target is T2, SRSF7 (Homo sapiens) (UniProt Q16629).
T2 sequence: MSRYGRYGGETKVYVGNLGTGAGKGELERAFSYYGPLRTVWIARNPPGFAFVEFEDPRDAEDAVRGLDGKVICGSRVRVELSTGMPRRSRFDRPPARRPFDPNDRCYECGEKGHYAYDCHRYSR

A further series addresses T3, RBMS3 (Homo sapiens) (UniProt Q6XE24).
T3 sequence: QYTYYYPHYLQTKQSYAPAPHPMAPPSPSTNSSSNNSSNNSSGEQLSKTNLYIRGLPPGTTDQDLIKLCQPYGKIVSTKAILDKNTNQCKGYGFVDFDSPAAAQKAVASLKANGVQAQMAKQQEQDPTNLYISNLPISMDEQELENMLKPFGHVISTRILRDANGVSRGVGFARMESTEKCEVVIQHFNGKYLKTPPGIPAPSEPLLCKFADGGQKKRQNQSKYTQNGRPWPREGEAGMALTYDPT

Series [1] has as its target T4, Cnot4 (Drosophila melanogaster) (UniProt M9MRH8).
T4 sequence: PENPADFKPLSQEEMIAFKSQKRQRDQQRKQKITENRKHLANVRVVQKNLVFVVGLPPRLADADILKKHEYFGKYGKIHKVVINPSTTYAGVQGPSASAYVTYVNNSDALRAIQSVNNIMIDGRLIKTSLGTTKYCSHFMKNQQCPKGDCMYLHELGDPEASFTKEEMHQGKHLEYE

In series [2] the target is T5, CG14718 (Drosophila melanogaster) (UniProt Q7K543).
T5 sequence: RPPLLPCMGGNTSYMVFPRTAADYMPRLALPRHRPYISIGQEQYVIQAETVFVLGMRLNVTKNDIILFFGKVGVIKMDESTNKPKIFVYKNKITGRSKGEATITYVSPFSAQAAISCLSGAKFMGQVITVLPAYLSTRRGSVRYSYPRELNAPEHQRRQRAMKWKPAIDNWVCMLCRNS

In series [3] the target is T6, Rsf1 (Drosophila melanogaster) (UniProt Q24491).
T6 sequence: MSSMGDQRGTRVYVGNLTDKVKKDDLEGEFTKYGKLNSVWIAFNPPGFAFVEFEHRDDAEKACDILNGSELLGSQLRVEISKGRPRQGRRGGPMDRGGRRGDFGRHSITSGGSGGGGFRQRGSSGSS

The target of another series is T7, SART3 (Homo sapiens) (UniProt Q15020).
T7 sequence: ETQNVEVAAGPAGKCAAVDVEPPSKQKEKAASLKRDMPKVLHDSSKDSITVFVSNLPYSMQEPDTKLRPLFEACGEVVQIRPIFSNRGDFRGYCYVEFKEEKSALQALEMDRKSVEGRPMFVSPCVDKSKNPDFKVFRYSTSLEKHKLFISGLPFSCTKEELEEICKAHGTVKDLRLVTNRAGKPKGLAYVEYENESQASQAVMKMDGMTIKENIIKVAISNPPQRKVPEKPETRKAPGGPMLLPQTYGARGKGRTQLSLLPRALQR

Series [4] addresses T8, shep (Drosophila melanogaster) (UniProt Q8MSV2).
T8 sequence: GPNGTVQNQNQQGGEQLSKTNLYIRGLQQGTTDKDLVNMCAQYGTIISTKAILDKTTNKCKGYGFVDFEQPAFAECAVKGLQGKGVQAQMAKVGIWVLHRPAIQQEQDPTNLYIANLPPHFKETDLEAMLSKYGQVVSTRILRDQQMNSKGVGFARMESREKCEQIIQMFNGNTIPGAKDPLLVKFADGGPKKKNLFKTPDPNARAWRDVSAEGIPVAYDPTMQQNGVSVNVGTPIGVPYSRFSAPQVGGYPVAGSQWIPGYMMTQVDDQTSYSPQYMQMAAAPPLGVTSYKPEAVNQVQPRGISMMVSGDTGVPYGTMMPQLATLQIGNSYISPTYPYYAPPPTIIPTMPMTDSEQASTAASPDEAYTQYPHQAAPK

Series [5] has as its target T9, VTS1 S437M (Saccharomyces cerevisiae) (UniProt Q08831).
T9 sequence: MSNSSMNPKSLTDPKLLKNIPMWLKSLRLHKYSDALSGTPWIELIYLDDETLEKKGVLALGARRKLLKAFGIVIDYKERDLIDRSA

The target of series [6] is T10, sm (Drosophila melanogaster) (UniProt A4UZQ5).
T10 sequence: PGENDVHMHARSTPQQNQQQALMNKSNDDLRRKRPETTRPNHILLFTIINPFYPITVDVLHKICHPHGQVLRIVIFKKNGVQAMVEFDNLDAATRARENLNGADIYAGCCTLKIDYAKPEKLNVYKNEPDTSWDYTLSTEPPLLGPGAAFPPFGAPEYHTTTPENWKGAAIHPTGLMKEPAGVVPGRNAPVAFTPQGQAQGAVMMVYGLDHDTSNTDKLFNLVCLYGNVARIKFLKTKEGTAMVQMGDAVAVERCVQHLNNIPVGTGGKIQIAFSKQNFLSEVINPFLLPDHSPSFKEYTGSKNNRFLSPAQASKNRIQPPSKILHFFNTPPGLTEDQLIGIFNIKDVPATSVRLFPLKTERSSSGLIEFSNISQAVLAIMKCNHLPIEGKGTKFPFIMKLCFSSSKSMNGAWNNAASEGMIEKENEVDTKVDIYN

Series [7] concerns the target T11, mxt (Drosophila melanogaster) (UniProt Q9VR35).
T11 sequence: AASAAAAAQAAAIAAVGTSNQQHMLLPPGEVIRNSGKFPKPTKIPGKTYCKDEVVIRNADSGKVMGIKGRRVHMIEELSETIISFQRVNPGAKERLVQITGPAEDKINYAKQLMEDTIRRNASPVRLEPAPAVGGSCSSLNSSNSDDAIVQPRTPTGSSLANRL

For series [8], the target named is U2af50 (Drosophila melanogaster) (UniProt Q24562).
Series [9] has as its target T12, tra2 (Drosophila melanogaster) (UniProt P19018).
T12 sequence: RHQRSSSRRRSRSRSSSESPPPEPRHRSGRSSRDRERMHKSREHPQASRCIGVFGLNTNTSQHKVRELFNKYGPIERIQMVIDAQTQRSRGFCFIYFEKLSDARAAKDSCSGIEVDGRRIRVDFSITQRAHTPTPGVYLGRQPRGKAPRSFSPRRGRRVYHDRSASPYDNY

In series [10] the target is unc-75 (Caenorhabditis elegans) (UniProt G5EE68).
Series [11] concerns the target T13, Rbp1 (Drosophila melanogaster) (UniProt Q02427).
T13 sequence: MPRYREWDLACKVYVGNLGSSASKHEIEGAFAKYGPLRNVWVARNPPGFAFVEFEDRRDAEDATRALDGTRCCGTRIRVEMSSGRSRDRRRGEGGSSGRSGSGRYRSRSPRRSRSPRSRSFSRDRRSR

Series [12] has as its target T14, SF1 (Drosophila melanogaster) (UniProt A9UNA1).
T14 sequence: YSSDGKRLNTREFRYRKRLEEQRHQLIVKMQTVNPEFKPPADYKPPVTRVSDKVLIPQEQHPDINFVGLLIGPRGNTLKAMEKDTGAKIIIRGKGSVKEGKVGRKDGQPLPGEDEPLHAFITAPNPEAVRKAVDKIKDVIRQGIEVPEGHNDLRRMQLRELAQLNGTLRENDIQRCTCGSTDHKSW

For another series, the target named is T15, TIA1 (Homo sapiens) (UniProt P31483).
T15 sequence: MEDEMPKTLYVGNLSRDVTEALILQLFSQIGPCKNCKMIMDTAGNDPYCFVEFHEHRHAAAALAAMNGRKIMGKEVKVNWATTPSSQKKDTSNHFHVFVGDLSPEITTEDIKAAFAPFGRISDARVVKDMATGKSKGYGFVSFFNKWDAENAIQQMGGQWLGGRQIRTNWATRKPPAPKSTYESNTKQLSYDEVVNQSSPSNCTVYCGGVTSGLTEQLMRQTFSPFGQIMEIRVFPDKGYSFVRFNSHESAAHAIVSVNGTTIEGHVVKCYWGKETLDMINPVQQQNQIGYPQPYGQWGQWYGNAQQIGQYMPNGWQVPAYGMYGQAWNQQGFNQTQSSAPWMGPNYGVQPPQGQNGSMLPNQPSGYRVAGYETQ

Series [13] concerns the target T16, SF2 (Drosophila melanogaster) (UniProt Q7KJ21).
T16 sequence: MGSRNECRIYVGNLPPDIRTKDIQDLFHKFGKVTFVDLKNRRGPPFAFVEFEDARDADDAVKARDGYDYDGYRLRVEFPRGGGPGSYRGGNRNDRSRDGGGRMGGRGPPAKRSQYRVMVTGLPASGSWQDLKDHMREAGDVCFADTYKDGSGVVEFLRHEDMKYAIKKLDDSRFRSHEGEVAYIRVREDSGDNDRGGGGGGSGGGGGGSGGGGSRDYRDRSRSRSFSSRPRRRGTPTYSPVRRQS

YBX1 (Homo sapiens), sequence (P67809 whole entry): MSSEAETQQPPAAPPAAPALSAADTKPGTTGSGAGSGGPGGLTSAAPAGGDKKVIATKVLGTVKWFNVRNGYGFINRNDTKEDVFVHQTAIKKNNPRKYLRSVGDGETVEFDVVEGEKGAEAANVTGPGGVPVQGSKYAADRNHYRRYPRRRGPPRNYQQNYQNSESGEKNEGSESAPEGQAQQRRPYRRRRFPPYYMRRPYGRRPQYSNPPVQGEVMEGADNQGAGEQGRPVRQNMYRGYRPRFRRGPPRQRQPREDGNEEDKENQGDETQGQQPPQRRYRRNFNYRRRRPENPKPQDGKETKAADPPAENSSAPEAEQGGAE
YBX2 (Homo sapiens), sequence (Q9Y2T7 whole entry): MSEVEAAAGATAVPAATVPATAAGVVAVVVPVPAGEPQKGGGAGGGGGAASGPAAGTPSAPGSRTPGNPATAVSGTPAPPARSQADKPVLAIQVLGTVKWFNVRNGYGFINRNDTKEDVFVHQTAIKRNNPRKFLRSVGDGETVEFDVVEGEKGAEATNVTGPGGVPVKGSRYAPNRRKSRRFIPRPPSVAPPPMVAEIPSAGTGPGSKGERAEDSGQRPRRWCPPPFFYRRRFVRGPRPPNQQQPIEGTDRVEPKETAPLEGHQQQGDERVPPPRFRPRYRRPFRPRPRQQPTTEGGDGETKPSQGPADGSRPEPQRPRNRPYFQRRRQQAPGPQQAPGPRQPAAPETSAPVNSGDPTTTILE
U2AF2 (Homo sapiens), sequence (P26368 101-475): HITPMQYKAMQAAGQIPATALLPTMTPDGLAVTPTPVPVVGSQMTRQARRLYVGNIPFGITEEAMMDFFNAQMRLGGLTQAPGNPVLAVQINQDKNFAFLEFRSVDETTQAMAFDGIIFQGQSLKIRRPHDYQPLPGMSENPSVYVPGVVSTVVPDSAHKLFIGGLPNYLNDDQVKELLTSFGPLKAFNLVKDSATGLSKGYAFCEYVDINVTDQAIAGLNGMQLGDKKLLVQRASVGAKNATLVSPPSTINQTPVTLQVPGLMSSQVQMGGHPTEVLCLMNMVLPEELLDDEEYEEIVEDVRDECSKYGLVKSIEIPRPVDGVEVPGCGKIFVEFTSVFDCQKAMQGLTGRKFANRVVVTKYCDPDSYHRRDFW
Khdrbs1 (Mus musculus), sequence (Q60749 3-443): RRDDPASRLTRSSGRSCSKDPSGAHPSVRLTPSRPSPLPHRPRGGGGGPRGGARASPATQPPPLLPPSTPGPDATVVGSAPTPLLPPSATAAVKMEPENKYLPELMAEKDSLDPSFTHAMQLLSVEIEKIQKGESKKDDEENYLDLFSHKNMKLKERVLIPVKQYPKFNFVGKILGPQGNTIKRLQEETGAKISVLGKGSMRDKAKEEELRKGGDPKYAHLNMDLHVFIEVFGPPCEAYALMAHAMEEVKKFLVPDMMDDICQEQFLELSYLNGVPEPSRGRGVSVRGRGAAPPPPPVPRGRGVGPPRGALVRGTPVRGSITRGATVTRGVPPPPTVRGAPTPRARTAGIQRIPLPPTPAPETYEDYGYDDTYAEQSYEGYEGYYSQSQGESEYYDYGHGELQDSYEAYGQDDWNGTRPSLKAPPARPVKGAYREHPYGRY
SRSF9 (Homo sapiens), sequence (Q13242 whole entry): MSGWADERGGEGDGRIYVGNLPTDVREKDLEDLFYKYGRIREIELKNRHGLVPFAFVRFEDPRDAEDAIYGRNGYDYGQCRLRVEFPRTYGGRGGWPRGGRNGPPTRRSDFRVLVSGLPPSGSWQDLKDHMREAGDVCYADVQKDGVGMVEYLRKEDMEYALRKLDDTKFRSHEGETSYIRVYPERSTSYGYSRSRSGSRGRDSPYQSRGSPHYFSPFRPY
U2af50 (Drosophila melanogaster), sequence (Q24562 45-416): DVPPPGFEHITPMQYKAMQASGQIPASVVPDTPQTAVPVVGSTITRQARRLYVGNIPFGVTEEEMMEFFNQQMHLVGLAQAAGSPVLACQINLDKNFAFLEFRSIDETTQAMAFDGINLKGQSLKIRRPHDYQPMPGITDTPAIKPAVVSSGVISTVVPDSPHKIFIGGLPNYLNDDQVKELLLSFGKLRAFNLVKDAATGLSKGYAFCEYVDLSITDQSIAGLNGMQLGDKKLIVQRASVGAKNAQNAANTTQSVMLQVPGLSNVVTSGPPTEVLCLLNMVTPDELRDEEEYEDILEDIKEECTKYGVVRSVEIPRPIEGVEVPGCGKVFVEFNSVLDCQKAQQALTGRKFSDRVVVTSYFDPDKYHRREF
SNRPA (Homo sapiens), sequence (P09012 whole entry): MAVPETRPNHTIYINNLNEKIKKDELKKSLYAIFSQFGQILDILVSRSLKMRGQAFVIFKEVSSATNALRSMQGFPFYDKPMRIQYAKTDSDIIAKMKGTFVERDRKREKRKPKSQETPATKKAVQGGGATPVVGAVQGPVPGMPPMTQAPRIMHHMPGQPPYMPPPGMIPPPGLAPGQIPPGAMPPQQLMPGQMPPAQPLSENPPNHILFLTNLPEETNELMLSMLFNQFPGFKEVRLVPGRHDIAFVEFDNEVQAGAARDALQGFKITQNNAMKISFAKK
SNRNP70 (Homo sapiens), sequence (P08621 55-225): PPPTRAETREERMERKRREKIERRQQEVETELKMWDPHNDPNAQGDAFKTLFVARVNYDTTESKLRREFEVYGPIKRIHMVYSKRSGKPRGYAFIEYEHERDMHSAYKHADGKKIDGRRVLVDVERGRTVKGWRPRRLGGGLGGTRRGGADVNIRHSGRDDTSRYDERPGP
TARDBP (Homo sapiens), sequence (Q13148 56-315): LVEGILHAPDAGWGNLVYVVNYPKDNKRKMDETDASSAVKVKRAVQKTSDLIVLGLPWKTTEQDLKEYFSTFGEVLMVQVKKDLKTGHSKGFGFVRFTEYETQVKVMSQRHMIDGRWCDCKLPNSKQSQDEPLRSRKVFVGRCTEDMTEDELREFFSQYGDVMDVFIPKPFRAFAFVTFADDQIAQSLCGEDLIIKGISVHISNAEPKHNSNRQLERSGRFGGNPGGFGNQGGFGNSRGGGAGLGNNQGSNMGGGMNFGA

Regarding GCUGGNC [RNAcompete motif RNCMPT00063], the binding signal (z-score (mean of top ten 7-mers)) with SAMD4A (Homo sapiens) is 15.9.

Turning to GACGACG [RNAcompete motif RNCMPT00073], the binding signal (z-score (mean of top ten 7-mers)) with SRSF7 (Homo sapiens) was 11.3.

On to AACANC [RNAcompete motif RNCMPT00084], for which the binding signal (z-score (mean of top ten 7-mers)) in the series with YBX2 (Homo sapiens) was 9.95.

For UAUAUA [RNAcompete motif RNCMPT00173], the binding signal (z-score (mean of top ten 7-mers)) with RBMS3 (Homo sapiens) is 8.57.

For the substance UUUUUCC [RNAcompete motif RNCMPT00079], the binding signal (z-score (mean of top ten 7-mers)) with U2AF2 (Homo sapiens) was 17.

For the substance AGACACA [RNAcompete motif RNCMPT00008], the binding signal (z-score (mean of top ten 7-mers)) in [1] is 12.4.

With UUGCACA [RNAcompete motif RNCMPT00071], in the series with SNRPA (Homo sapiens), the binding signal (z-score (mean of top ten 7-mers)) is 10.9.

Regarding CCAGAUG [RNAcompete motif RNCMPT00006], the binding signal (z-score (mean of top ten 7-mers)) in series [2] is 11.9.

With ACGACGA [RNAcompete motif RNCMPT00061], the binding signal (z-score (mean of top ten 7-mers)) in series [3] is 10.6.

Regarding AUGGA [RNAcompete motif RNCMPT00067], in the series with SRSF9 (Homo sapiens), the binding signal (z-score (mean of top ten 7-mers)) is 6.71.

Turning to GAAAAA [RNAcompete motif RNCMPT00064], the binding signal (z-score (mean of top ten 7-mers)) with SART3 (Homo sapiens) is 11.1.

On to UAUAUUA [RNAcompete motif RNCMPT00175], for which the binding signal (z-score (mean of top ten 7-mers)) in series [4] was 7.37.

Consider AUCAAG [RNAcompete motif RNCMPT00070], for which, in the series with SNRNP70 (Homo sapiens), the binding signal (z-score (mean of top ten 7-mers)) was 8.16.

On to GCUGGCC [RNAcompete motif RNCMPT00111], for which, in series [5], the binding signal (z-score (mean of top ten 7-mers)) was 24.3.

With AGACAC [RNAcompete motif RNCMPT00069], in series [6], the binding signal (z-score (mean of top ten 7-mers)) was 11.2.

Consider UAAAAG [RNAcompete motif RNCMPT00062], for which the binding signal (z-score (mean of top ten 7-mers)) in the series with Khdrbs1 (Mus musculus) is 7.39.

With CAACGA [RNAcompete motif RNCMPT00007], in [7], the binding signal (z-score (mean of top ten 7-mers)) was 13.9.

With UUUUUCC [RNAcompete motif RNCMPT00080], the binding signal (z-score (mean of top ten 7-mers)) in series [8] is 12.8.

Turning to AACAUC [RNAcompete motif RNCMPT00083], the binding signal (z-score (mean of top ten 7-mers)) with YBX1 (Homo sapiens) was 14.5.

For the substance AGAAGA [RNAcompete motif RNCMPT00078], the binding signal (z-score (mean of top ten 7-mers)) in [9] is 7.09.

UGUUGUG [RNAcompete motif RNCMPT00081]: in series [10], the binding signal (z-score (mean of top ten 7-mers)) was 10.4.

In the case of ACAACG [RNAcompete motif RNCMPT00058], the binding signal (z-score (mean of top ten 7-mers)) in [11] was 9.03.

For the substance UCUNAU [RNAcompete motif RNCMPT00065], the binding signal (z-score (mean of top ten 7-mers)) in series [12] was 9.28.

For UUUUUU [RNAcompete motif RNCMPT00165], in the series with TIA1 (Homo sapiens), the binding signal (z-score (mean of top ten 7-mers)) was 9.41.

Take GAAUGA [RNAcompete motif RNCMPT00076]: the binding signal (z-score (mean of top ten 7-mers)) with TARDBP (Homo sapiens) is 9.33.

For GGAGGA [RNAcompete motif RNCMPT00066], in [13], the binding signal (z-score (mean of top ten 7-mers)) is 14.1.
